Among the data in patent US20250346678A1 (published 2025) are EC50 and IC50 values, retold here.

As a reminder, the EC50 is the concentration at which the effect is half-maximal. Higher therefore signals a less potent agent. As usually defined, the IC50 is the concentration that gives 50% inhibition. Higher therefore signals lower potency.

In test [1] the target is T1, human PD-L1 IgG1 Fc chimera (human, UniProt Q9NZQ7 19-238). Description: ELISA.
Test [2] addresses T1, human PD-L1 IgG1 Fc chimera. Description: competition ELISA; PD-1/PD-L1 blocking.
Test [3] concerns the target T2, human OX40 IgG1 Fc chimera (human, UniProt P43489 29-214).
T2 chain: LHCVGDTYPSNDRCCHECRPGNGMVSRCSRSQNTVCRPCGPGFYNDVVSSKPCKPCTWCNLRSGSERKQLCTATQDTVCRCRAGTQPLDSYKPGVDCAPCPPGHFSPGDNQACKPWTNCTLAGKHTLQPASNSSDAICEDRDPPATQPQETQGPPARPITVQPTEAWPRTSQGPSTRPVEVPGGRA
The test is described as follows: ELISA. A general note: In an ELISA, binding on a coated surface is turned into a signal by an enzyme label.

T1 sequence (Q9NZQ7 19-238, change not shown): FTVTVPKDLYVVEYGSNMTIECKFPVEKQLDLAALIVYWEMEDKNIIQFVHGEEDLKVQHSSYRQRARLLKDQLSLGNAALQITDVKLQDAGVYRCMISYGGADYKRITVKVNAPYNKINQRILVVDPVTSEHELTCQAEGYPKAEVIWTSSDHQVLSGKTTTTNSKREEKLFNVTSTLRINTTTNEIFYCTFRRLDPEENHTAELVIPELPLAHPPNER

B1: anti-PD-L1 antibody clone 6 (antibody, V domains shown)
VH: QVQLVQSGAEVKKPGSSVKVSCKASGGTFRRYSISWVRQAPGQGLEWMGGIIPVFGAAKYAQKFQGRVTITADEFTSTAYMELSSLTSEDTAVYYCALSGDSDAFDIWGQGTMVTVSS
VL: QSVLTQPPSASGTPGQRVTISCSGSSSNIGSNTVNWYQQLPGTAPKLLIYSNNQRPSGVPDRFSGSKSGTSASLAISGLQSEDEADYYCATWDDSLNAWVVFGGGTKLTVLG
B1: the half-maximal effective concentration (EC50) in test [1] is 0.082 nM. Further, the IC50 in test [2] came to 11.4 nM.

B2: anti-PD-L1 antibody clone 32 (antibody, V domains shown)
VH: QVQLVQSGAKVKKPGSSVKVSCKASGGTFSSYAISWVRQAPGQGLEWMGRIIPILGIANYAQKFQGRVTITADKSTSTAYMELSSLRSEDTAVYYCARVVPGYSYGPFDYWGQGTTVTVSS
VL: QSALTQPASVSGSPGQSITISCTGTSNDVGSYNSVSWYQQHPGKAPKLVIYEVANRPSGVPDRFSGSKSGNTASLTISGLQAEDEADYYCSSYTSSSTLVFGGGTKLTVLG
B2 registered an EC50 in test [1] of 0.0348 nM.

B3: anti-OX40 antibody clone B19 (antibody, V domains shown)
VH: EVQLVESGGGLVKPGGSLRLSCAASGFTFSSYSMNWVRQAPGKGLEWVSSISSSSRYIYYADSVKGRFTISRDNAKNSLYLQMNSLRAEDTAVYYCARQNEDVAFGIWGQGTMVTVSS
VL: SYVLTQPPSVSVTPGKTARIACGGNNLESKIVSWYQQKPGQAPVLVIFYDTDRPSGISERFSGSNSGNTATLTISRVEAGDEADYYCQVWDSNSDHVIFGGGTKLTVLG
As for B3, the EC50 in test [3] was 1.22 nM.
